In patent US20250353912A1 (NEW YORK UNIVERSITY, published 2025):

Assays:
[1] = biological target: T1, HLA-A*01:01 in complex with the BTK peptide … conjugated with Ibrutinib (human, ibrutinib covalently bound to Cys); assay: phage display selection; MBBA
T1 construct: also called HLA-A*01:01_BTK-Ibrutinib

[2] = biological target: T2, HLA-A*03:01 in complex with the KRAS (wild type) peptide … (human); assay: MBBA titration of purified IgG (FIG. 11)
T2 construct: also called HLA-A*03:01_WTRAS

[3] = biological target: T3, HLA-A*11:01 in complex with the KRAS (wild type) peptide … (human); assay: MBBA titration of purified IgG (FIG. 11)
T3 construct: also called HLA-A*11:01_WTRAS

Binder	binding result [1]	binding result [2]	binding result [3]
IBA1-7 (antibody, V domains shown, phage-display clone) VH: EVQLVESGGGLVQPGGSLRLSCAASGFTLSSSSIHWVRQAPGKGLEWVASISSYYGSTSYADSVKGRFTISADTSKNTAYLQMNSLRAEDTAVYYCARMHYSWQEYYSYDWGMDYWGQGTLVTVSS VL: DIQMTQSPSSLSASVGDRVTITCRASQSVSSAVAWYQQKPGKAPKLLIYSASSLYSGVPSRFSGSRSGTDFTLTISSLQPEDFATYYCQQSYWWKSLVTFGQGTKVEIKR	binds	–	–
IBA1-19 (antibody, V domains shown, phage-display clone) VH: EVQLVESGGGLVQPGGSLRLSCAASGFTFSYSSIHWVRQAPGKGLEWVASIYPSSGYTSYADSVKGRFTISADTSKNTAYLQMNSLRAEDTAVYYCARGWWYWMAWDYAMDYWGQGTLVTVSS VL: DIQMTQSPSSLSASVGDRVTITCRASQSVSSAVAWYQQKPGKAPKLLIYSASSLYSGVPSRFSGSRSGTDFTLTISSLQPEDFATYYCQQSWMSDSLITFGQGTKVEIKR	binds	–	–
IBA1-21 (antibody, V domains shown, phage-display clone) VH: EVQLVESGGGLVQPGGSLRLSCAASGFTISSSSIHWVRQAPGKGLEWVASISSYYGYTSYADSVKGRFTISADTSKNTAYLQMNSLRAEDTAVYYCARYYSYSSGYGYYDYFDWGAMDYWGQGTLVTVSS VL: DIQMTQSPSSLSASVGDRVTITCRASQSVSSAVAWYQQKPGKAPKLLIYSASSLYSGVPSRFSGSRSGTDFTLTISSLQPEDFATYYCQQMQYSGWLITFGQGTKVEIKR	binds	–	–
IBA1-13 (antibody, V domains shown, phage-display clone) VH: EVQLVESGGGLVQPGGSLRLSCAASGFTLSSSSIHWVRQAPGKGLEWVASIYSSYGYTYYADSVKGRFTISADTSKNTAYLQMNSLRAEDTAVYYCARYYYYWYGGMDYWGQGTLVTVSS VL: DIQMTQSPSSLSASVGDRVTITCRASQSVSSAVAWYQQKPGKAPKLLIYSASSLYSGVPSRFSGSRSGTDFTLTISSLQPEDFATYYCQQGHDMNPVTFGQGTKVEIKR	binds	–	–
AMRA11-15 (antibody, human IgG1, V domains shown, phage-display clone; purified as human IgG1/kappa) VH: EVQLVESGGGLVQPGGSLRLSCAASGFTVYYSSIHWVRQAPGKGLEWVASIYSYYGSTYYADSVKGRFTISADTSKNTAYLQMNSLRAEDTAVYYCARGEKWALDYWGQGTLVTVSS VL: DIQMTQSPSSLSASVGDRVTITCRASQSVSSAVAWYQQKPGKAPKLLIYSASSLYSGVPSRFSGSRSGTDFTLTISSLQPEDFATYYCQQFDFQYLITFGQGTKVEIKR	–	no binding	no binding
IBA1-8 (antibody, V domains shown, phage-display clone) VH: EVQLVESGGGLVQPGGSLRLSCAASGFTISYSSIHWVRQAPGKGLEWVASIYPSYGSTSYADSVKGRFTISADTSKNTAYLQMNSLRAEDTAVYYCARWQGYYQPALDYWGQGTLVTVSS VL: DIQMTQSPSSLSASVGDRVTITCRASQSVSSAVAWYQQKPGKAPKLLIYSASSLYSGVPSRFSGSRSGTDFTLTISSLQPEDFATYYCQQPYYPLITFGQGTKVEIKR	binds	–	–
AMRA3-22 (antibody, human IgG1, V domains shown, phage-display clone; purified as human IgG1/kappa; also called AMRA3-22 hIgG1) VH: EVQLVESGGGLVQPGGSLRLSCAASGFTFYSSSIHWVRQAPGKGLEWVAYIYSSSGYTSYADSVKGRFTISADTSKNTAYLQMNSLRAEDTAVYYCARPVNYYYQGALDYWGQGTLVTVSS VL: DIQMTQSPSSLSASVGDRVTITCRASQSVSSAVAWYQQKPGKAPKLLIYSASSLYSGVPSRFSGSRSGTDFTLTISSLQPEDFATYYCQQSDMPPITFGQGTKVEIKR	–	no binding	no binding
AMRA311-16 (antibody, human IgG1, V domains shown, phage-display clone; purified as human IgG1/kappa; also called AMRA311-16 hIgG1) VH: EVQLVESGGGLVQPGGSLRLSCAASGFTISSSSIHWVRQAPGKGLEWVAYISSYSGYTYYADSVKGRFTISADTSKNTAYLQMNSLRAEDTAVYYCARYWYGHYHSYFGLDYWGQGTLVTVSS VL: DIQMTQSPSSLSASVGDRVTITCRASQSVSSAVAWYQQKPGKAPKLLIYSASSLYSGVPSRFSGSRSGTDFTLTISSLQPEDFATYYCQQSSSSLITFGQGTKVEIKR	–	no binding	no binding
